Residue numbers refer to the chain shown, from its start. In names and notes the source's numbering stands.

Assay in all cases: ITC; 250 μM PabB titrated into 25 μM PabA in the cell; 25 °C; 50 mM Tris/HCl pH 7.5, 50 mM KCl, 5 mM MgCl2; without Cho and Gln; one set of sites
Common to all, as to details: both partners purified
For orientation: In ITC the heat of successive injections is recorded.

The target in one assay is T1, PabB variant bE119R (Escherichia coli, UniProt P05041 1-453, bE119R).
T1 construct: PabB, synthase subunit of ADCS, E. coli; construct as m2 with one exchange; Made by QuikChange mutagenesis from the construct of m2; source: E. coli BL21-Gold (DE3), purified (Ni-IMAC, preparative gel filtration)
T1 sequence: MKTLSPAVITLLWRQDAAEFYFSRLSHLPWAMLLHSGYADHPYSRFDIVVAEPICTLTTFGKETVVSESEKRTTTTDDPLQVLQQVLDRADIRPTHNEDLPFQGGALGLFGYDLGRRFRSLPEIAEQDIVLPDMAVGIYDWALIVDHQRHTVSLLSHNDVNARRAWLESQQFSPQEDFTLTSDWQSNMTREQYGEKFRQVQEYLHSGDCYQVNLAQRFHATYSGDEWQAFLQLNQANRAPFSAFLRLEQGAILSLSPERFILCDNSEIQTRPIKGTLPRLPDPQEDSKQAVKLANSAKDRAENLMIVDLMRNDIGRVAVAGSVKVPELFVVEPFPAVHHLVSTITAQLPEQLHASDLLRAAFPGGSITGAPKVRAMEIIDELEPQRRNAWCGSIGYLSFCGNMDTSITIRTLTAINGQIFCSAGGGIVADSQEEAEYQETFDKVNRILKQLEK

For the next assay, the target named is T2, PabB variant bG207P (Escherichia coli, UniProt P05041 1-453, bG207P).
T2 construct: PabB, synthase subunit of ADCS, E. coli; construct as m2 with one exchange; Made by QuikChange mutagenesis from the construct of m2; source: E. coli BL21-Gold (DE3), purified (Ni-IMAC, preparative gel filtration)
T2 sequence: T1 sequence with R119E, G207P

Assay [1] concerns the target T3, PabB, synthase subunit of aminodeoxychorismate synthase (ADCS) from Escherichia coli, wild type (Escherichia coli, UniProt P05041 1-453).
T3 construct: PabB, synthase subunit of ADCS, E. coli; the gene was cloned into pET28a; Form used for SEC, ITC and kinetics; TEV cleavage is told only of the proteins used for crystallization; also called wt PabB; ADCS synthase subunit; source: E. coli BL21-Gold (DE3), purified (Ni-IMAC, preparative gel filtration)
T3 sequence: T1 sequence with R119E

In another assay the target is T4, PabB variant bD308E (Escherichia coli, UniProt P05041 1-453, bD308E).
T4 construct: PabB, synthase subunit of ADCS, E. coli; construct as m2 with one exchange; Made by QuikChange mutagenesis from the construct of m2; source: E. coli BL21-Gold (DE3), purified (Ni-IMAC, preparative gel filtration)
T4 sequence: T1 sequence with R119E, D308E

B1: PabA, glutaminase subunit of aminodeoxychorismate synthase (ADCS) from Escherichia coli, wild type (enzyme)
chain: MILLIDNYDSFTWNLYQYFCELGADVLVKRNDALTLADIDALKPQKIVISPGPCTPDEAGISLDVIRHYAGRLPILGVCLGHQAMAQAFGGKVVRAAKVMHGKTSPITHNGEGVFRGLANPLTVTRYHSLVVEPDSLPACFDVTAWSETREIMGIRHRQWDLEGVQFHPESILSEQGHQLLANFLHR
notes: PabA, class I glutaminase subunit of ADCS, E. coli; the gene was cloned into pET28a; Form used for SEC, ITC and kinetics; TEV cleavage is told only of the proteins used for crystallization; The G5H-Tag stands between the TEV site and the start methionine of PabA; also called wt PabA; ADCS glutaminase subunit; source: E. coli BL21-Gold (DE3), purified (Ni-IMAC, preparative gel filtration)
A word on the Kd: it is a measure of binding affinity in units of concentration. A higher Kd goes with weaker binding. For B1, the Kd with PabB variant bE119R amounted to 540 nM; in the assay with PabB variant bG207P, 1700 nM; in assay [1] it was 160 nM; with PabB variant bD308E it was 1700 nM.

For the origin of these results see article PMC7617670, “Activity Regulation of a Glutamine Amidotransferase Bienzyme Complex by Substrate-Induced Subunit Interface Expansion” (ACS catalysis, 2025).
